Source: patent US20220242939A1 (BIOARCTIC, published 2022)
Residue numbers refer to the chain shown, from its start. Blank lines part the entries; values can stand above or below the binder they belong to. Non-standard residues stand in square brackets, D forms with d. No end group written: not given here. Ahx = NCCCCCC(=O)O

How the values were obtained:
[1] = molecular target: T1, A199 N-terminal neo-epitope peptide AGQPLQE-Acp-C (SEQ ID NO:55) conjugated to BSA (human, not fully specified (residue 9); printed as AGQPLQE-Acp-C; also: C-terminal Cys conjugated to BSA carrier); assay: direct ELISA after limiting dilution
T1 construct: BSA carrier
T1 peptide: AGQPLQE[Ahx]C

[2] = molecular target: T2, recombinant C-terminal ApoE fragment A199-HIS (ApoE-A199-H299-10xHIS) (human, UniProt P02649 217-317); assay: direct ELISA, A199-HIS coated at 0.1 µM
T2 construct: also called A199-HIS fragment
Experimental: (§1) Selectivity evaluation of purified monoclonal antibodies by direct ELISA: The direct ELISA described below was used to evaluate the binding selectivity of the purified monoclonal antibodies produced in Example 17.
(§2) The screening was performed according to standard ELISA protocols. Briefly, 1 μg/ml solutions of BSA-conjugated neo-epitope peptides and negative control peptide, and 0.1 μM recombinant C-terminal ApoE fragment and full-length ApoE (Abcam, cat. no. ab50243) were prepared by dilution in PBS. 50 μl/well were added to an ELISA half-area 96 well microtiter plate, and the plate was sealed with adhesive sealer and incubated over night at 4° C. After discarding the solution, the plates were blocked with 150 μl/well of protein-free blocking solution (Pierce) for 1 h at room temperature with shake (600-900 rpm). The plates were washed four times with washing buffer containing 0.28 mM NaH₂PO₄, 2.5 mM Na₂HPO₄, 150 mM NaCl, 0.1% TWEEN®-20 and 0.0075% Kathon CG. Purified monoclonal antibodies of interest were 3-fold serially diluted with a starting dilution at 3 μg/ml (mixed 1:2 with dilution buffer (PBS with 0.1% BSA and 0.05% TWEEN®-20)). An anti-ApoE C-terminal antibody was used as a reference antibody (ApoE E-8 mouse monoclonal, Santa Cruz Biotechnology, cat. no. sc-393302). 50 μl/well were added into the ELISA plates and incubated for 2 h at room temperature with shake (600-900 rpm). The plates were washed four times as described previously. […] After another wash (as described previously), 50 μl/well of K-Blue® aqueous substrate (Neogen) were added, and the reaction was stopped after 5-15 min with 50 μl/well of 0.5 M H₂SO₄. The optical density at 450 nm was read using an ELISA reader (Tecan).

[3] = molecular target: T3, A199 N-terminal neo-epitope peptide AGQPLQ-Acp-C (SEQ ID NO:51) conjugated to BSA (human, not fully specified (residue 8); printed as AGQPLQ-Acp-C; also: C-terminal Cys conjugated to BSA carrier); assay: direct ELISA, A199-BSA peptide coated at 1 µg/ml
T3 construct: BSA carrier; also called A199-BSA peptide
T3 peptide: AGQPLQ[Ahx]C
Experimental: as §1, §2

[4] = molecular target: T2, recombinant C-terminal ApoE fragment …; assay: SPR (Biacore 8K), A199-HIS amine-coupled on CM5, antibody as analyte, bivalent analyte fit (KD1)
[5] = molecular target: T2, recombinant C-terminal ApoE fragment …; assay: SPR (Biacore 8K), A199-HIS amine-coupled on CM5, antibody as analyte, bivalent analyte fit (ka1)
[6] = molecular target: T2, recombinant C-terminal ApoE fragment …; assay: SPR (Biacore 8K), A199-HIS amine-coupled on CM5, antibody as analyte, bivalent analyte fit (kd1)
[7] = molecular target: T4, full-length ApoE in human brain extract from Alzheimer's disease patients (human, UniProt P02649 19-317); assay: Western blot of AD brain RIPA 2% SDS extract; anti-A199 antibody at 2 ug/ml as primary antibody
T4 construct: mature; Endogenous protein on Western blot or in solution (IP); also called ApoE full-length protein
Experimental: RIPA 2% SDS brain extract containing approximately 60 μg total protein was mixed with 2×Laemmli sample buffer, boiled for 5 min at 95° C. and loaded onto SDS-PAGE gels (Bolt™ 12% Bis-Tris Plus 10 well, Thermo Fisher, cat. no. NW00120BOX). Gels were run for 30-40 min at 180 V, after which proteins were transferred from the gels onto nitrocellulose membranes using the Trans-Blot® Turbo™ system (Bio-Rad). […] Membranes were washed and incubated for 1 h at room temperature with the detection antibody anti-mouse-800CW (LI-COR, cat. no. 925-32210) diluted 1:25000 in Intercept® PBS Blocking Buffer (LI-COR) with 0.1% TWEEN®-20. Membranes were washed and images acquired using Odyssey® FC (LI-COR).

[8] = molecular target: T5, recombinant full-length ApoE4 (aa 1-299; SEQ ID NO:45; Abcam cat. no. ab50243) (human, UniProt P02649 19-317); assay: direct ELISA; proteins coated at 0.1 uM, BSA peptides at 1 ug/ml; antibody in 3-fold dilutions from 3000 ng/ml; blank reduced OD 450 nm
T5 construct: Bought protein; also called recombinant ApoE4 full-length protein
Experimental: as §1, §2

[9] = molecular target: T6, L198 N-terminal neo-epitope peptide LAGQPL-Acp-C (SEQ ID NO:52) conjugated to BSA (human, not fully specified (residue 8); printed as LAGQPL-Acp-C; also: C-terminal Cys conjugated to BSA carrier); assay: as above
T6 construct: BSA carrier; also called L198-BSA peptide
T6 peptide: LAGQPL[Ahx]C
Experimental: as §1, §2

[10] = molecular target: 7C7, recombinant IgG2c antibody; assay: inhibition ELISA: antigen in solution varied, antibody 7C7 at 0.05 µg/ml, plate coated with G200-BSA peptide
Experimental: (§3) The pre-incubated samples were transferred (50 μl/well) to the blocked ELISA plates, and plates were incubated for 25 min at room temperature without shaking. Plates were washed as described above. Alkaline phosphatase conjugated anti-mouse IgG detection antibody (Mabtech, cat. no. 3310-4) was diluted 1:1000 and added to each plate (50 μl/well). The plate was sealed and incubated with shaking (900 rpm) for 45 min at room temperature and subsequently washed as described above. Alkaline phosphatase substrate (50 μl/well) was added to the plate and the optical density was read every 15 min at a wavelength of 405 nm for up to 120 min. The IC50 values were determined from a log inhibitor concentration response curve (FIG. 17).

[11] = molecular target: 17G4, recombinant IgG2c antibody; assay: inhibition ELISA: antigen in solution varied, antibody 17G4 at 0.05 µg/ml, plate coated with G200-BSA peptide
Experimental: as §3

[12] = molecular target: 23D5, recombinant IgG2c antibody; assay: inhibition ELISA: antigen in solution varied, antibody 23D5 at 0.05 µg/ml, plate coated with G200-BSA peptide
Experimental: as §3

[13] = molecular target: 28F2, recombinant IgG2c antibody; assay: inhibition ELISA: antigen in solution varied, antibody 28F2 at 0.05 µg/ml, plate coated with G200-BSA peptide
Experimental: […] of each synthetic ApoE peptide, recombinant C-terminal ApoE fragment G200-HIS and full-length ApoE4 were prepared by 4-fold dilution starting from 1000 ng/ml in 96 well storage plates (30 μl final volume). Each recombinant antibody to be tested was added (30 μl) to the serial dilutions of each of the synthetic ApoE peptides, G200-HIS or full-length ApoE4 at a final concentration of 0.05 μg/ml per well. Samples were pre-incubated for 45 min at room temperature with shaking (900 rpm).
as §3

[14] = molecular target: T7, 7B10, recombinant IgG2c antibody; assay: inhibition ELISA: antigen in solution varied, antibody 7B10 at 0.05 µg/ml, plate coated with G200-BSA peptide
T7 construct: also called 7610
Experimental: as §3

T4 sequence (P02649 19-317): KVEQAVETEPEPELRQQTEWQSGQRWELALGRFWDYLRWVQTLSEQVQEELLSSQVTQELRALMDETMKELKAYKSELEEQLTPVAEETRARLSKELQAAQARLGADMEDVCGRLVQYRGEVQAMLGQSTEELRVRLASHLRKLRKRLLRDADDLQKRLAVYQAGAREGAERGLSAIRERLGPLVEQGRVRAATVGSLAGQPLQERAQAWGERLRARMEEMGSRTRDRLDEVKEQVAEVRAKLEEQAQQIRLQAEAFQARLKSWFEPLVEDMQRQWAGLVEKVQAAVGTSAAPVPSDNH
T5 sequence (P02649 19-317 C130R limits assumed): as the sequence (P02649 19-317) above, with C112R counted along it
Sequence of 17G4, recombinant IgG2c antibody (VH, as listed by the source): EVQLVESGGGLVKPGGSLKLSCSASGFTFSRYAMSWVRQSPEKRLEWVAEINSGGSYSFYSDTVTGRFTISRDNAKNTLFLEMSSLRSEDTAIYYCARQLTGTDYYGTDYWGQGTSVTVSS
T7 sequence (VH, as listed by the source): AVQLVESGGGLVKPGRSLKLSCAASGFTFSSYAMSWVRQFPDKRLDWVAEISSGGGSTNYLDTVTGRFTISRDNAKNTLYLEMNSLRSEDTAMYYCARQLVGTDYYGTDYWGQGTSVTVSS
Sequence of 7C7, recombinant IgG2c antibody (VH, as listed by the source, chain 1 of 2): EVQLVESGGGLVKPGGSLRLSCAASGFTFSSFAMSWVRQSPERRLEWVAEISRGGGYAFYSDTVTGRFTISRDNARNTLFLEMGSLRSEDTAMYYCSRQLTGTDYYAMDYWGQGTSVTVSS
Sequence of 7C7, recombinant IgG2c antibody (VL, as listed by the source, chain 2 of 2): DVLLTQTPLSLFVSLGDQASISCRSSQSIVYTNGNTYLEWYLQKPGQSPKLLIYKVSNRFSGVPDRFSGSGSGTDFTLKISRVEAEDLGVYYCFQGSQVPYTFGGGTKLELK
Sequence of 28F2, recombinant IgG2c antibody (VH, as listed by the source): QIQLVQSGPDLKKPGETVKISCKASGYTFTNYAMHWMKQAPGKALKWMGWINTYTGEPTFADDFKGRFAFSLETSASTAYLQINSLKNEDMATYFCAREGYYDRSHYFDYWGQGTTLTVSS
Sequence of 23D5, recombinant IgG2c antibody (VH, as listed by the source): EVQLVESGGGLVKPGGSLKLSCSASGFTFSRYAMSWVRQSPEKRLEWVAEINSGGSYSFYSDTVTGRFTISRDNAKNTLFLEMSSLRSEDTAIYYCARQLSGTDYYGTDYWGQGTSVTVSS

binding result [1]: binds | EC50 [2]: 1.8 ng/mL | EC50 [3]: 3.8 ng/mL | Kd [4]: 137 nM | kon [5]: 150000 M⁻¹ s⁻¹ | koff [6]: 0.0207 s⁻¹ | binding result [7]: no binding (tested: 2 ug/ml (text)) | binding result [8]: no binding (tested: 3000 ng/ml) | binding result [9]: no binding (tested: 3000 ng/ml)
B1: 63F6, monoclonal anti-A199 antibody (antibody, IgG2b, V domains shown)
VH: QVQLQQPGTELVKPGASVKLSCKASGYTFTNYWMHWVKQRPGQGLEWIGNINPRNGGTNYNEKFKSKATLTVDKSSSTDYMQLSSLTSEDSAVYYCARGLYDYDFDYWGQGTTLTVSS
VL: DVLMTQTPLSLPVSLGDQASISCRSSQSIVHGNGNTYLQWFLQKPGQSPKLLIYKVSSRFSGVPDRFSGSGSGTDFTLKISRVEAEDLGVYYCFQGSHVPFTFGSGTKLEIK

binding result [1]: binds | EC50 [2]: 3.5 ng/mL | EC50 [3]: 4.4 ng/mL | Kd [4]: 83 nM | kon [5]: 180000 M⁻¹ s⁻¹ | koff [6]: 0.0172 s⁻¹ | binding result [7]: no binding (tested: 2 ug/ml (text)) | binding result [8]: no binding (tested: 3000 ng/ml)
B2: 67G3, monoclonal anti-A199 antibody (antibody, IgG2b, V domains shown)
VH: B1 VH with N31R, M34L, R54T, T58A, S66N, D79A, A97S, L100A, F105C
VL: B1 VL with S28R, G32S, T36I, F41Y, S58N, F101Y, S105G

IC50 [10]: 2.8 nM | IC50 [11]: 3 nM | IC50 [12]: 2.4 nM | IC50 [13]: 2.4 nM | IC50 [14]: 2.8 nM
B3: recombinant C-terminal ApoE fragment G200-HIS (ApoE-G200-H299-10xHIS) (other)
chain: GQPLQERAQAWGERLRARMEEMGSRTRDRLDEVKEQVAEVRAKLEEQAQQIRLQAEAFQARLKSWFEPLVEDMQRQWAGLVEKVQAAVGTSAAPVPSDNHHHHHHHHHHH
notes: also called G200-HIS fragment
